Measured values: patent publication EP1096011A1, “Microbiological production method for alpha-l-aspartyl-l-phenylalanine” (Holland Sweetener Company V.o.F., priority 1999, dated 2001)

B1: Asp-Leu-His6, Asp-Leu dimodular peptide synthetase from Bacillus subtilis ATCC 21332 surfactin synthetase (srfA-B), His6-tagged (Bacillus subtilis subsp. … (protein)
chain: PNVRLSDVDLLSSAETAALLEERHMTQITEATFAALFEKQAQQTPDHSAVKAGGNLLTYRELDEQANQLAHHLRAQGAGNEDIVAIVMDRSAEVMVSILGVMKAGAAFLPIDPDTPEERIRYSLEDSGAKFAVVNERNMTAIGQYEGIIVSLDDGKWRNESKERPSSISGSRNLAYVIYTSGTTGKPKGVQIEHRNLTNYVSWFSEEAGLTENDKTVLLSSYAFDLGYTSMFPVLLGGGELHIVQKETYTAPDEIAHYIKEHGITYIKLTPSLFHTIVNTASFAKDANFESLRLIVLGGEKIIPTDVIAFRKMYGHTEFINHYGPTEATIGAIAGRVDLYEPDAFAKRPTIGRPIANAGALVLNEALKLVPPGASGQLYITGQGLARGYLNRPQLTAERFVENPYSPGSLMYKTGDVVRRLSDGTLAFIGRADDQVKIRGYRIEPKEIETVMLSLSGIQEAVVLAVSEGGLQELCAYYTSDQDIEKAELRYQLSLTLPSHMIPAFFVQVDAIPLTANGKTDRNALPKPNAAQSGGKALAAPETALEESLCRIWQKTLGIEAIGIDDNFFDLGGHSLKGMMLIANIQAELEKSVPLKALFEQPTVRQLAAYMEASAVSGGHQVLKPADKQDMYPLSSAQKRMYVLNQLDRQTISYNMPSVLLMEGELDISRLRDSLNQLVNRHESLRTSFMEANGEPVQRIIEKAEVDLHVFEAKEDEADQKIKEFIRPFDLNDAPLIRAALLRIEAKKHLLLLDMHHIIADGVSRGIFVKELALLYKGEQLPEPTLHYKDFAVWQNEAEQKERMKEHEAYWMSVLSGELPELDLPLDYARPPVQSFKGDTIRFRTGSETAKAVEKLLAETGTTLHMVLHAVFHVFLSKISGQRDIVIGSVTAGRTNADVQDMPGMFVNTLALRMEAKEQQTFAELLELAKQTNLSALEHQEYPFEDLVNQLDLPRDMSRNPLFNVMVTTENPDKEQLTLQNLSISPYEAHQGTSKFDLTLGGFTDENGIGLQLEYATDLFAKETAEKWSEYVLRLLKAVADNPNQPLSSLLLVTETEKQALLEAWKGKALPVPTDKTVHQLFEETVQRHKDRPAVTYNGQSWTYGELNAKANRLARILMDCGISPDDRVGVLTKPSLEMSAAVLGVLKAGAAFVPIDPDYPDQRIEYILQDSGAKLLLKQEGISVPDSYTGDVILLDGSRTILSLPLDENDEGNPETAVTAENLAYMIYTSGTTGQPKGVMVEHHALVNLCFWHHDAFSMTAEDRSAKYAGFGFDASIWEMFPTWTIGAELHVIDEAIRLDIVRLNDYFETNGVTITFLPTQLAEQFMELENTSLRVLLTGGDKLKRAVKKPYTLVNNYGPTENTVVATSAEIHPEEGSLSIGRAIANTRVYILGEGNQVQPEGVAGELCVAGRGLARGYLNREDETAKRFVADPFVPGERMYRTGDLVKWVNGGIEYIGRIDQQVKVRGYRIELSEIEVQLAQLSEVQDAAVTAVKDKGGNTAIAAYVTPETADIEALKSTLKETLPDYMIPAFWVTLNELPVTANGKVDRKALPEPDIEAGSGEYKAPTTDMEELLAGIWQDVLGMSEVGVTDNFFSLGGDSIKGIQMASRLNQHGWKLEMKDLFQHPTIEELTQYVERAE

Experiments:
Experiment in all cases: ATP-PPi exchange reaction (amino acid activation)
[1] = tested on: Asp-Phe-His6, hybrid Asp-Phe dipeptide synthetase (Asp module of Bacillus subtilis ATCC 21332 srfA-B, Phe minimal module of Bacillus brevis ATCC 8185 tycA) …; format: biochemical, Bacillus subtilis ATCC 21332 / Bacillus brevis ATCC 8185; details: 37°C
Description: (§1) Specificity of amino acid activation was determined indirectly by incorporation of labelled ^32PPi into ATP during reverse reaction (Lee, S.G. & Lipmann, F.; Tyrocidine synthetase system; Methods Enzymol. 43, 1975, p.585-602). For this purpose 20 pmol of each enzyme was incubated with 1 mM amino acid, 1 mM ATP, 0,1 mM PPi, 50 mM HEPES, 100 mM NaCl and 10 mM MgCl2 and 2 mCi ^32PPi at 37°C in a total volume of 100 µL. Reactions were quenched after 10 min by adding 500 µL of a solution containing 100 mM NaPPi, 560 mM perchloric acid and 1,2% (w/v) active charcoal. The mixture was centrifuged at 13000 rpm for 1 min. The pellet was washed and resuspended twice with 1 mL H2O.
(§2) Incorporation of labelled ATP (adsorbed to the charcoal) was detected by measuring radioactivity of the precipitate. […] KM values for Asp and ATP were determined to be 3,5 mM and 0,9 mM respectively. KM values for Leu and ATP were detected to be 0,3 mM and 0,6 mM, respectively.
(§3) The KM value for Phe was determined to be about 50 µM.

[2] = tested on: Asp-Phe-TE-His6, hybrid Asp-Phe dipeptide synthetase with integrated srfA-C thiolation and TE domain, His6-tagged; format: biochemical, Bacillus subtilis ATCC 21332 / Bacillus brevis ATCC 8185; details: 37°C
Description: as §1, §2, §3

[3] = substrate: Nc1ncnc2c1ncn2[C@@H]1O[C@H](COP(=O)(O)OP(=O)(O)OP(=O)(O)O)[C@@H](O)[C@H]1O; format: biochemical, Bacillus subtilis ATCC 21332; details: other: ATP-PPi exchange, 37°C
Description: as §1, §2

[4] = substrate: CC(C)C[C@H](N)C(=O)O; format: biochemical, Bacillus subtilis ATCC 21332; details: other: ATP-PPi exchange, 37°C
Description: as §1, §2

[5] = substrate: N[C@@H](CC(=O)O)C(=O)O; format: biochemical, Bacillus subtilis ATCC 21332; details: other: ATP-PPi exchange, 37°C
Description: as §1, §2

Row | Molecule | Km [1] | Km [2] | Km ([3]; ATP value paired with Asp (Asp activation)) | Km ([3]; ATP value paired with Leu (Leu activation)) | Km [4] | Km [5]
1 | N[C@@H](Cc1ccccc1)C(=O)O [Phe, L-phenylalanine] | ~50 µM | ~50 µM |  |  |  | 
2 | B1 |  |  | 900 µM | 600 µM | 300 µM | 3.5 mM
